Data taken from publication PMC11910330, “Familial Alzheimer’s disease mutations in amyloid precursor protein impair calcineurin signaling to NMDA receptors” (The Journal of Biological Chemistry, 2024).

Tests used:
[1] = target: APLP2 peptide (APLP2 core sequence in the PVIVIT peptide); assay: pull-down; biotinylated peptides (10 ug) precoupled to streptavidin-coated beads, incubated with 200 ng GST-CaN in 200 ul for 30 min at 4 C; PBS with 0.1% Tween-20 and 0.1% BSA, or 150 mM NaCl, 10 mM Hepes, 5 mM EDTA, pH 7.4 with 0.5% CHAPSO and 0.1% BSA; immunoblot with anti-CaN, normalised to a GST-CaN standard
[2] = target: APLP1 peptide (APLP1 core sequence in the PVIVIT peptide); assay: as above

percent lower CaN binding than the PVIVIT peptide [1]: 30% | percent lower CaN binding than the PVIVIT peptide [2]: 80%
Substance: recombinant GST-tagged CaN A subunit (from UniProt Q08209 1-521) (enzyme)
